In PMC10479434:

Legend:
[1] = target: α-synuclein (wild type) (UniProt P37840)
[2] = target: α-synuclein (wild type) (UniProt P37840); remark: listed apart in the source

Chain of HtrA1ΔNTD (residues 156–480) (Q92743 156-480, stated change not applied): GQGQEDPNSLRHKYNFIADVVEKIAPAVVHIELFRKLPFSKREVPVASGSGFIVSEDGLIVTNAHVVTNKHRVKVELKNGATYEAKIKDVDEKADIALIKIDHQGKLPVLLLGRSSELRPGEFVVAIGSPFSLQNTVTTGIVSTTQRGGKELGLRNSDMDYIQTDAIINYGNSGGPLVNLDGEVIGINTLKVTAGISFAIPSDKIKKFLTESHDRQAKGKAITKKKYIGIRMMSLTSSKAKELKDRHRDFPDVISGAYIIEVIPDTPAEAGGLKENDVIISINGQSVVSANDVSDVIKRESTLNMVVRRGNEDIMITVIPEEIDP

ThT fluorescence of α-syn (25 μM) fibrillized with HtrA1 (5 μM) for 48h, relative to the signal without HtrA1 (% of the ThT signal without HtrA1) [1]: 20
sedimentation assay, α-syn (25 μM) with HtrA1 (5 μM), 24–72h: share of α-syn in the insoluble fraction (HtrA1 itself stays soluble with α-syn) (% of α-syn insoluble) [2]: < 10
Substance: HtrA1ΔNTD (residues 156–480) (from UniProt Q92743 156-480) (domain or fragment)
